Measured values taken from patent US20120316071A1 (published 2012).
Positions count from the first letter of the chain named. In names and notes the source's numbering stands.

T1: rHuman Erythropoietin R/Fc Chimera (human, UniProt P19235 25-250)
T1 construct: also called EPO R; EPO R/Fc
T1 sequence (looked up): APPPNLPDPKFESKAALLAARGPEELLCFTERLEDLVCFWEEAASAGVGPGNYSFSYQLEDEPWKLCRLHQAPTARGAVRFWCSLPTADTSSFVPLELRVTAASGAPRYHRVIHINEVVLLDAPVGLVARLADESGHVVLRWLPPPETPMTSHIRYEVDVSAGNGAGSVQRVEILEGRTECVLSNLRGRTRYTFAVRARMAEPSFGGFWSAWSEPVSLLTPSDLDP

T2: rHuman Erythropoietin R/Fc Chimera, CF (R&D Systems Cat#963-ER) (human, UniProt P19235 25-250)
T2 construct: Bought recombinant protein; also called EPO R; EPO R/Fc
T2 sequence (looked up): T1 sequence (looked up)

T3: rHuman Erythropoietin R/Fc Chimera, CF (R&D Systems Cat#963-ER) (human, UniProt P19235 25-250)
T3 construct: Bought from R&D Systems; also called EPO R; EPO R/Fc; Fc part of the bought chimera not given
T3 sequence (looked up): T1 sequence (looked up)

B1: Fab VH1-46_IGHD6-6*01_IGHJ1*01 S102A/S103P/S104F/H111F (APFF) & L6_IGKJ1*01 S92M (Fab, V domains shown)
VH: QVQLVQSGAEVKKPGASVKVSCKASGYTFTSYYMHWVRQAPGQGLEWMGIINPSGGSTSYAQKFQGRVTMTRDTSTSTVYMELSSLRSEDTAVYYCAREEYAPFSAEYFQFWGQGTLVTVSS
VL: EIVLTQSPATLSLSPGERATLSCRASQSVSSYLAWYQQKPGQAPRLLIYDASNRATGIPARFSGSGSGTDFTLTISSLEPEDFAVYYCQQRMNWPPWTFGQGTKVEIKR
notes: Tested as Fab (CH1 with His6/Flag tags from Plasmid A; kappa CL from Plasmid C); also called APFF / S92M
B2: Fab VH1-46_IGHD6-6*01_IGHJ1*01 S102A/S103P/S104F/H111F (APFF) & L6_IGKJ1*01 S92N (Fab, V domains shown)
VH: B1 VH
VL: B1 VL with M92N
notes: Tested as Fab (CH1 with His6/Flag tags from Plasmid A; kappa CL from Plasmid C); also called APFF / S92N
B3: Fab VH1-46_IGHD6-6*01_IGHJ1*01 S102A/S103P/S104F/H111F S31A & L6_IGKJ1*01 (Fab, V domains shown)
VH: B1 VH with S31A
VL: not shown
notes: Fab as for m1 (CH1 with His6/Flag tags, kappa CL); also called APFF S31A
B4: Fab VH1-46_IGHD6-6*01_IGHJ1*01 S102A/S103P/S104F/H111F T28A & L6_IGKJ1*01 (Fab, V domains shown)
VH: B1 VH with T28A
VL: not shown
notes: Fab as for m1 (CH1 with His6/Flag tags, kappa CL); also called APFF T28A
B5: Fab VH1-46_IGHD6-6*01_IGHJ1*01 S102A/S103P/S104F/H111F Y33A & L6_IGKJ1*01 (Fab, V domains shown)
VH: B1 VH with Y33A
VL: not shown
notes: Fab as for m1 (CH1 with His6/Flag tags, kappa CL); also called APFF Y33A
B6: Fab VH1-46_IGHD6-6*01_IGHJ1*01 S102A/S103P/S104F/H111F T30A & L6_IGKJ1*01 (Fab, V domains shown)
VH: B1 VH with T30A
VL: not shown
notes: Fab as for m1 (CH1 with His6/Flag tags, kappa CL); also called APFF T30A
B7: Fab VH1-46_IGHD6-6*01_IGHJ1*01 S102A/S103P/S104F/H111F S31A & L6_IGKJ1*01 (Fab, V domains shown)
VH: B1 VH with S31A
VL: not shown
notes: Tested as a Fab made in E. coli; The heavy chain vector (Plasmid A) adds CH1 with His6 and Flag tags; The light chain vector (Plasmid C) adds kappa CL; also called APFF S31A
B8: Fab VH1-46_IGHD6-6*01_IGHJ1*01 S102A/S103P/S104F/H111F T28A & L6_IGKJ1*01 (Fab, V domains shown)
VH: B1 VH with T28A
VL: not shown
notes: Tested as a Fab made in E. coli; The heavy chain vector (Plasmid A) adds CH1 with His6 and Flag tags; The light chain vector (Plasmid C) adds kappa CL; also called APFF T28A
B9: Fab VH1-46_IGHD6-6*01_IGHJ1*01 S102A/S103P/S104F/H111F Y33A & L6_IGKJ1*01 (Fab, V domains shown)
VH: B1 VH with Y33A
VL: not shown
notes: Tested as a Fab made in E. coli; The heavy chain vector (Plasmid A) adds CH1 with His6 and Flag tags; The light chain vector (Plasmid C) adds kappa CL; also called APFF Y33A
B10: Fab VH1-46_IGHD6-6*01_IGHJ1*01 S102A/S103P/S104F/H111F T30A & L6_IGKJ1*01 (Fab, V domains shown)
VH: B1 VH with T30A
VL: not shown
notes: Tested as a Fab made in E. coli; The heavy chain vector (Plasmid A) adds CH1 with His6 and Flag tags; The light chain vector (Plasmid C) adds kappa CL; also called APFF T30A

The binders below were run against rHuman IGF-1 sR (insulin-like growth factor-1 soluble receptor) (human, UniProt P08069 31-932) (assay: ECL multispot (MSD) binding assay; antigen spotted on plate, Fab in solution;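 further: purified Fab bound for 1 h at 20 °C, detected with a TAG-labelled antibody, electrochemiluminescence compared with each well's blank, signal-to-blank ratio of at least 4 scored as hit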).

In order of falling ECL signal:
1. B2  312
2. B1  271

What follows are binders tested against rHuman CD44/Fc Chimera (human, UniProt P16070 21-220) in the same assay as above.

In order of rising ECL signal:
1. B1  304
2. B2  336

These binders were tested against rHuman ErbB2/Fc Chimera (human, UniProt P04626 23-652) in the same assay as above.

In order of rising ECL signal:
1. B2  242
2. B1  301

These binders were tested against rHuman EGF R/Fc Chimera (human, UniProt P00533 25-645) in the same assay as above.

In order of falling ECL signal:
1. B1  367
2. B2  293

Each binder was assayed against T4, rHuman P-Cadherin/Fc Chimera (human, UniProt P22223 108-654) in the same assay as above.
T4 construct: Bought from R&D Systems (Cat#861-PC)

In order of falling ECL signal:
1. B1  328
2. B2  271

These binders were tested against T5, rHuman HGF R/c-MET/Fc Chimera (human, UniProt P08581 25-932) in the same assay as above.
T5 construct: also called HGF R/Fc
T5 sequence (P08581 25-932, change not shown): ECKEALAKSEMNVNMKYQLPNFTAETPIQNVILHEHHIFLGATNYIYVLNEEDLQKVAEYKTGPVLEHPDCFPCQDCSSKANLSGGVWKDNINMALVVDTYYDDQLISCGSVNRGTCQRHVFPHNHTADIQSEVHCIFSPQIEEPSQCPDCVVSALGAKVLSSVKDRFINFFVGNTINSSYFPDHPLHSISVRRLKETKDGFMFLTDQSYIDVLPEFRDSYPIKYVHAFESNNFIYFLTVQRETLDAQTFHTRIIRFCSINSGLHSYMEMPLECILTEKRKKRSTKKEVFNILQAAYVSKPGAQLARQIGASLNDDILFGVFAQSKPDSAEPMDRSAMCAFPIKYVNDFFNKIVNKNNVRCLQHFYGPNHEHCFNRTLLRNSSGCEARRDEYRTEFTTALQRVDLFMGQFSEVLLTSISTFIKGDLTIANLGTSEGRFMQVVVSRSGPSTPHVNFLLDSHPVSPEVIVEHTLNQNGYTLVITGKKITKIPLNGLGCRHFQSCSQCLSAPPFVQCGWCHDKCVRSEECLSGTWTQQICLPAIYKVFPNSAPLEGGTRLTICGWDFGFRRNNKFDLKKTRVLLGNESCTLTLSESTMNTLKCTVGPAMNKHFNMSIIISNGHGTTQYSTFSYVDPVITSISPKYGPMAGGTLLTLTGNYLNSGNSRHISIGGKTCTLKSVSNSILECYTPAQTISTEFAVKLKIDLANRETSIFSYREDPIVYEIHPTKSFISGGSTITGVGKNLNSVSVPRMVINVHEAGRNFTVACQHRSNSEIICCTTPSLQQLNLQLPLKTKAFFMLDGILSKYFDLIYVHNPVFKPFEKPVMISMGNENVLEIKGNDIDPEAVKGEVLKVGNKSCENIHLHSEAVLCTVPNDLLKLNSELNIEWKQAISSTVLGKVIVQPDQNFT

In order of rising ECL signal:
1. B2  243
2. B1  346

These binders were tested against T1, rHuman Erythropoietin R/Fc Chimera in the same assay as above.

In order of rising ECL signal:
1. B2  314
2. B1  340

Each binder was assayed against T6, rHuman Notch-1/Fc Chimera (human, UniProt P46531 19-526) in the same assay as above.
T6 construct: Bought from R&D Systems (Cat#3647-TK)

In order of rising ECL signal:
1. B1  385
2. B2  407

Each binder was assayed against T7, Recombinant Human DLL4 (R&D Systems Cat#1506-D4/CF) (human, UniProt Q9NR61 27-524) (assay: ECL (MSD) binding assay, immobilised DLL4, repeat experiment).
T7 construct: Bought recombinant protein; also called delta-like protein 4; rHuman DLL4

In order of falling ECL signal:
1. B4  181000
2. B6  178000
3. B3  176000
4. B5  59500

These binders were tested against T7, Recombinant Human DLL4 (R&D Systems …) (assay: ECL (MSD) binding assay, DLL4 signal divided by blank, repeat experiment).

In order of rising Signal/Noise:
1. B5  225
2. B4  404
3. B6  503
4. B3  530

The binders below were run against T2, rHuman Erythropoietin R/Fc Chimera, CF … (assay: ECL Multispot (MSD) assay, antigen spotted on plate, 10 nM Fab;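 further: purified Fab bound to antigen spots for 1 h at 20 °C, then TAG detection antibody, electrochemiluminescence compared with each well's blank, ratio of 4 or more marks a hit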).

In order of falling ECL signal:
1. B4  480
2. B3  454
3. B6  428
4. B5  373

These binders were tested against T8, rHuman Notch-1/Fc Chimera, CF (R&D Systems Cat#3647-TK) (human, UniProt P46531 19-526) in the same assay as above.
T8 construct: Bought recombinant protein

In order of rising ECL signal:
1. B5  244
2. B6  270
3. B3  333
4. B4  432

What follows are binders tested against T9, rHuman CD44/Fc Chimera, CF (R&D Systems Cat#3660-CD) (human, UniProt P16070 21-220) in the same assay as above.
T9 construct: Bought recombinant protein

In order of rising ECL signal:
1. B5  294
2. B3  379
3. B6  439
4. B4  471

What follows are binders tested against T10, rHuman HGF R/c-MET/Fc Chimera, CF (R&D Systems Cat#358-MT/CF) (human, UniProt P08581 25-932) in the same assay as above.
T10 construct: Bought recombinant protein; also called HGF R/Fc

In order of rising ECL signal:
1. B5  345
2. B3  398
3. B6  413
4. B4  427

Each binder was assayed against T11, rHuman ErbB2/Fc Chimera, CF (R&D Systems Cat#1129-ER) (human, UniProt P04626 23-652) in the same assay as above.
T11 construct: Bought recombinant protein

In order of falling ECL signal:
1. B4  411
2. B5  394
3. B6  272
4. B3  207

What follows are binders tested against T12, rHuman IGF-1 sR (insulin-like growth factor-1 soluble receptor), CF (R&D Systems Cat#391-GR) (human, UniProt P08069 31-932) in the same assay as above.
T12 construct: Bought recombinant soluble receptor

In order of falling ECL signal:
1. B4  408
2. B3  405
3. B6  356
4. B5  308

What follows are binders tested against T13, rHuman P-Cadherin/Fc Chimera, CF (R&D Systems Cat#861-PC) (human, UniProt P22223 108-654) in the same assay as above.
T13 construct: Bought recombinant protein

In order of falling ECL signal:
1. B5  383
2. B4  381
3. B6  275
4. B3  255

The binders below were run against T14, rHuman EGF R/Fc Chimera, CF (R&D Systems Cat#344-ER) (human, UniProt P00533 25-645) in the same assay as above.
T14 construct: Bought recombinant protein

In order of rising ECL signal:
1. B5  372
2. B4  389
3. B3  394
4. B6  427

Each binder was assayed against T7, Recombinant Human DLL4 (R&D Systems …) in the same assay as above.

In order of falling ECL signal:
1. B4  140000
2. B6  140000
3. B3  138000
4. B5  27000

Each binder was assayed against T3, rHuman Erythropoietin R/Fc Chimera, CF … (assay: ECL multispot (MSD) binding assay; antigen spotted on plate, Fab in solution, Ru-labelled anti-kappa detection;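 further: purified Fab in 1% BSA TBST incubated 1 h at 20 °C with shaking, signal compared with each well's blank, signal/blank ratio of 4 or above counted as binder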).

In order of rising ECL signal:
1. B9  430
2. B8  477
3. B10  479
4. B7  507

Each binder was assayed against T15, rHuman ErbB2/Fc Chimera, CF (R&D Systems Cat#1129-ER) (human, UniProt P04626 23-652) in the same assay as above.
T15 construct: Bought from R&D Systems; also called human epidermal growth factor 2 receptor; Fc part of the bought chimera not given

In order of falling ECL signal:
1. B10  408
2. B8  316
3. B9  298
4. B7  253

Each binder was assayed against T16, rHuman Notch-1/Fc Chimera, CF (R&D Systems Cat#3647-TK) (human, UniProt P46531 19-526) in the same assay as above.
T16 construct: Bought from R&D Systems; Fc part of the bought chimera not given

In order of falling ECL signal:
1. B8  478
2. B7  427
3. B10  368
4. B9  334

These binders were tested against T17, rHuman HGF R/c-MET/Fc Chimera, CF (R&D Systems Cat#358-MT/CF) (human, UniProt P08581 25-932) in the same assay as above.
T17 construct: Bought from R&D Systems; also called HGF R/Fc; hepatocyte growth factor receptor; Fc part of the bought chimera not given

In order of rising ECL signal:
1. B9  248
2. B8  353
3. B10  353
4. B7  358

These binders were tested against T18, rHuman P-Cadherin/Fc Chimera, CF (R&D Systems Cat#861-PC) (human, UniProt P22223 108-654) in the same assay as above.
T18 construct: Bought from R&D Systems; Fc part of the bought chimera not given

In order of rising ECL signal:
1. B9  178
2. B7  262
3. B10  337
4. B8  477

These binders were tested against T19, rHuman CD44/Fc Chimera, CF (R&D Systems Cat#3660-CD) (human, UniProt P16070 21-220) in the same assay as above.
T19 construct: Bought from R&D Systems; Fc part of the bought chimera not given

In order of rising ECL signal:
1. B7  235
2. B9  290
3. B10  396
4. B8  497

Each binder was assayed against T20, rHuman IGF-1 sR, CF (R&D Systems Cat#391-GR) (human, UniProt P08069 31-932) in the same assay as above.
T20 construct: Bought from R&D Systems as a soluble receptor; also called insulin-like growth factor-1 soluble receptor

In order of rising ECL signal:
1. B9  227
2. B7  268
3. B10  343
4. B8  377

The binders below were run against T21, Recombinant Human DLL4 (R&D Systems Cat#1506-D4/CF) (human, UniProt Q9NR61 27-524) in the same assay as above.
T21 construct: Bought from R&D Systems; also called delta-like protein 4; rHuman DLL4

In order of rising ECL signal:
1. B9  59500
2. B7  176000
3. B10  178000
4. B8  181000

Each binder was assayed against T22, rHuman EGF R/Fc Chimera, CF (R&D Systems Cat#344-ER) (human, UniProt P00533 25-645) in the same assay as above.
T22 construct: Bought from R&D Systems; also called epidermal growth factor receptor; Fc part of the bought chimera not given

In order of falling ECL signal:
1. B7  377
2. B10  351
3. B8  329
4. B9  281
